Results on 22 sequences are retold here after the DeepSol protein solubility set.

A short description of this data set: soluble on expression in E. coli; label from the status in PepcDB or PDB records.
On to “MAAVDSFQLLYREIARSCSGYVETLALVGACYMASKTVIFMRDCYSLIRLYFVPRLVRHRDLSQQYGQWAIICGASEAIAKAYAEELARHGICVILISKDLSSVSDTARLISNNYGVEAICIEADFNQGPSACKPIKDAISSKDIGFIVNSFDGTLEISQNFLELSESVLWGTIDRNIAATTLVTRLALPAMMERGRGAVVNISSGHCFHPIPRKAAFSASTAFLDNFSRSLQYEYGDQGVFVQSLLPFRVASQRPEGSAPPASWLVPSPQVYASHALSTLGISHRTTGYWPHSMQLGLVKMMPEWVWMLGSRVFTMAT”, for which the “soluble on expression in E. coli” value is given as “soluble”.
In the case of “MAHHHHHHMQQRKTNKLFYPVAFLHFFLGEDNERRMFRRLSTSTLAAAAVRFYTPSESLKKLYTSDFDKTEFPLSIVPSDSVLFAKFLYKAAEPNNSFDAILKDFQTIAAASSSLPIFWERTAVVEDVAEFKKLSEPMFFTLVWMQKNGMLDLIPEVSEIYETYVNAKMKRIVAKIYVAPGKEGEVGEAKRVAQELHKEAKELDGYTLVFKTVVDRSIVTGFAVELAGQYVNRAEGHKSHAPAADEADYTTIPAPRLPKTVWEDNIETEVLCRYLESLAEYDAEEAKHGV”, the “soluble on expression in E. coli” value is on record as “not soluble”.
As for “MRGHLIDGDGRCIHYHGPFDVVGNKCATCNEWWACHRCHEEIANHPFGKMLIDAPSSLQCGHCGELMAYGVQKCPRCGHNFNPGCSLHTPLYYEMPSLEHHHHHH”, the “soluble on expression in E. coli” value is on record as “not soluble”.
The same measure for “MSGFFQRLFGKDNKPAIARGPLGLHLNSGFTLDTLAFRLLEDELLIALPGEEFTVAAVSHIDLGGGSQIFRYYTSGDEFLQINTTGGEDIDDIDDIKLFVYEESYGISKESHWREAINAKAMGAMTLNWQEKRWQRFFNSEEPGNIEPVYMLEKVENQNHAKWEVHNFTMGYQRQVTEDTYEYLLLNGEESFNDLGEPEWLFSRALGVDIPLTSLHIIG”: “not soluble”; for “MGSDKIHHHHHHMSETSDTIREAFTESAWIPSPKEVFGPDGSLTEEVGEENKSLIWTLLKQIRPGMDLSKVVLPTFILEPRSFLEKLADYYYHADLISEAVAEPDPFQRIVKVTKFFLSGFYKKPKGLKKPYNPILGETFRCKWEHPDGSTTFYMAEQVSHHPPVSSLFITNRKAGFNISGTILAKSKYYGNSLSAILAGKLRLTLLNLGETYIVNLPYANCKGIMIGTMTMELGGEVNIECEKTGYRTTLDFKLKPMLGGAYNQIEGSIKYGSDRLASIEGAWDGVIRIKGPDGKKELWNPTPEVIKTRLPRYEINMDEQGEWESAKLWRHVTEAISNEDQYKATEEKTALENDQRARAKSGIPHETKFFKKQHGDDYVYIHADYRPWDNNNDIQQIENNYVVKTISRHSKRKTGNSEQLGSDNTSEASESDEE”: “not soluble”; for “HERRTVLAEWSIGIDIGGTFTDLVALDYAGGKLHSLKMLTTYDDPSLAVMEGVRQLMATCGIAASEVGRVVHATTLFTNALISRAGARTGLLCNQGFMDAIEIGNERKYDLYDLAIDRPPPLVPRDLRREIPGRLDAHGNELEPLDRQAVVAMARSLADAGATSIAVCLLHAYASPRHEQQVHAWIRQAL”: “not soluble”.
Consider “MGSDKIHHHHHHMMQLLVTGATGFVGKTLCSALRRQSFPVKAIGRAGTIRADALGDQVASIDGQTDWSLILDGINAVIHLAARVHVMREQLADPLAAYRETNVEGTLNLARQAAKAGVKRFVFISSIKVNGEQTLPGKPFTAYDVPAPEDAYGISKFEAEQGLLALARETGMDVVVIRPPLVYGPGVKGNFASMMKLVKSGIPLPLGAIHNQRSLVAIDNLVNLIVTCIDHPAAANQVFLVSDGEDLSTSDLLRRLAKAAGVSSRLMPVSARWLEMGLRMCGKRLIAQRLLGSLQVDISKTRELLGWVPPISVDEGLKRCFSTKG”, for which the “soluble on expression in E. coli” value is recorded as “not soluble”.
Regarding “MGSDKIHHHHHHMDLYQEELIKKISAITPFYIVGGTVRDHLLNRPGKDVDGIIPIPLEELEKHLREWGYHPLKIGAKHQTLSVFQQGQRMDINFFDGDLEADALRRDFTINAVFQDARTGELIDPLQGREDLENKLLRACGNPWERFREDPVRILRMVRFSVQYGMDIEEDTFRSAQSLLPELKHVASERTSEELGRILTLADPAAGIRLLNELGYLTLYLPELVRLQGLAQNRYHTKDAWEHTLQVLANTPPQPILRLAGLFHDLGKWEVASRECYVWGKCWAEDKGYYIGEYRILGRQLHRYHGDYVEVHGTRLDHYPQVIQVKRIRKDPSCRRGFEWVRDGKRHFLGHEKESGRLTRQILARFRLAMVLGKEGEGGEKELLWLIENHMSGTLSFIAELRGEGSALQLNQKVRQFVWEKGWDGRSYRLTRVDQLLELWRADFYGGKKREPKEEQIFEELLEKLHQTNKAVQKRHQELEWGELEKFAQEHKIKGREWGDFKESLRKTRVVSVDWIPLTTGFLEKEYKHFKGRNYAKRERE”, the “soluble on expression in E. coli” value was “not soluble”.
For “MDMESQKILFALSTPMEIRNECCLPSHSSPKMYLGTCFFDLSSSWGIDDRDDLLRTIHRMIDNGHAARLAGFYHRWFRYSPCEWRDYLAELNEQGQAYAQFVASTAECCGEGGIKAWDYVRMGFLSRMGVLNNWLSEEESLWIQSRIHLRALRYYSNWRQYFAGYTFGRQYWQSPEDDHLPLLREFLARKEYDDSGNDMFYQLFASDDAYYPTLSWQPLAYYSACPETLKDMSDL”, the “soluble on expression in E. coli” value is listed as “not soluble”.
For “MGSDKIHHHHHHMYPECAKLPTFLRTVHEDVDAQARSLFTLDQNYMQVDPGPFCGTMATCDFGTGLVVSFEQVNKRVLQVAAVPFGTAQVALILEAGEPTTHNQVGRIRNAGVVMAPGAEARLSAGANTRVCLISIAGEAADHLRSRYNFDPDSLRADIFLDPAETTALRGLVTEAYQRFSSPQADRSFDQASAAAFHEAVLSVTAWTCASSARTQNQHRVAGDCRTTALTAAIRLIDHNLHNPVTVEWLARTLGVSRRSLEQAFGEAFDTSPGRYIKVLRLNSLRQMLRDPSNAEVSIGDLAARCGLWHQGRLASEFRELFGVLPSEARG”, the “soluble on expression in E. coli” value was “not soluble”.
As for “TESPADSFLKVELELNLKLSNLVFQDPVQYVYNPLVYAWAPHENYVQTYCKSKKEVLFLGMNPGPFGMAQTGVPFGEVNHVRDWLQIEGPVSKPEVEHPKRRIRGFECPQSEVSGARFWSLFKSLCGQPETFFKHCFVHNHCPLIFMNHSGKNLTPTDLPKAQRDTLLEICDEALCQAVRVLGVKLVIGVGRFSEQRARKALMAEGIDVTVKGIMHPSPRNPQANKGWEGIVRGQLLELGVLSLLTG”, the “soluble on expression in E. coli” value is “soluble”.
On to “MSLNVLIIGAGAVGLCLAAKLSNVADVFAVTRERNAKIIRESGFKMTGIWGEGTFNFEASENVPERDFDYIIISSKGLATKSICEQFKDVINGKNVISMQNGVGNEEIILRYTDKVIGGTIITGFEWKGDAKVHVSVEGGPMTVGRFPNGTDKEVTDFVKLIKSSGIPVNETENIQGAIWSKTIYNCALNPLGAVMNVPYGELSNEHSWNIIKNIVSEIFEITSKKGVILPWKTSEEYLKYLKEFQLPNTAAHHSSMLQDISKGNITEIDFLNGAVVTIAKEFGIKTPYNKFITEQIKFLENLKSKKEGHHHHHH”, for which the “soluble on expression in E. coli” value is “soluble”.
In the case of “MGSDKIHHHHHHMDIQKIAKFFEQLQNQDFAQWEDCFGKYDVEFSDDTAETFSQSCDHVVLFNNRLSKVMLLKTSDSILSIGGFQAHNRGKIEAKNRKKTLITIPTQLANDSFGTNRYSLQDNERKPSMGGIYPCKTIFDFSILLSNEIEKSLWGIGEYVGVYFSIIDYSSKYQENFEELIAWTVEQIDELSSLLKREDNRTILRRIASLLTVKCLIMRSNGNHEIGCSIDHSFARYLENKIQIPHGKAVYLGSLLTLLFYPEWEDKGLSLEKLFKIGHYVGITMSDIQYLKTQDFSTLVKEASLLRPKRSFSLDQIQEGEAMRIKKAKERANMITQIWDR”, the “soluble on expression in E. coli” value is on record as “not soluble”.
Regarding “TDGQLTKQHVRALAISALAPKPHETLWDIGGGSGSIAIEWLRSTPQTTAVCFEISEERRERILSNAINLGVSDRIAVQQGAPRAFDDVPDNPDVIFIGGGLTAPGVFAAAWKRLPVGGRLVANAVTVESEQMLWALRKQFGGTISSFAISHEHTVGSFITMKPALPVHQWTVVKALTKEL”, the “soluble on expression in E. coli” value is reported as “soluble”.
Regarding “MTTVRQRIDTQHRDAIHDAQLNIYGSRLATCGSDRLVKIFEVRPNGQSYPMAELVGHSGPVWKVSWAHPKYGGLLASASYDKKVIIWNEQQGRWQKAYEWAAHEASTTCVAFAPHQYGLMLASASADGDIGILRYDNSSNEWISSKIQKCHEQGVNSVCWAPGSADPAAKKRLVSAGNDKNVKIWALSQFGAKIFRDNGSKCHVTIRNARE”, the “soluble on expression in E. coli” value was “soluble”.
The value for “MYEITATIVTYKNPDSVLLKAINSFLNTKLEVRLYIIDNSPTDYLKDISYDPRVEYIFMNSNNGFGAGHNVILRDPEKMGKYHLILNPDISFEEGTLEKLYDYMEGKLDVGNVMPKVIYPNGELQYLCKLLPTPKDWIVRMFLPIKSIKNRIDYNFEMKFADYDREMNIPYLSGCFMFLRKSVIEGIGVFDEGIFMYGEDTDLNRRIYRKYKTMYYPQVTITHHFEKGSHKSLRLLWIHVKAAIYYLNKWGWFFDKERSIINITVKQQYIRKLEHHHHHH” was “soluble”; that for “MMRWIRHMFAPSAHRSFPPRSMDSIAAAIAASEQLHTGQVMVAVEADLSAAALWRGHGARQRAEQAFAQLRTWDTEANNGVLIYLLLADHAIEVVADRGLRALVPDAAWAEVCRRMQQFLRDGQHEAAVLAGVEAVTELLCAHFPAAAQAQHEDELPNRPHILGLEHHHHHH” was “soluble”.
Take “MKSSMAMIKHKKELVEYARHLKLPNLAEHVGVILHEAQEKQLTYSEFLANCLAREIQGRERKSYLTRLKLSGLPAKYDLDLYDYDRAEGMDNRRLRELRELVWVNQAYNLLLVGPSGTGKTFIAAGLVYEAVKAGYEAYLMTLEELLTCLKTKEVSAHAMKTYKRIMKARLLAIDDATLFPLKREEAVLLFKLVNDFQERTSLIITANKALTRWLETLEDEAVTAALLDRLLYCCEIIRLGGTSYRMQNRKTIFSNQNTDIGTLEHHHHHH”: the “soluble on expression in E. coli” value is recorded as “not soluble”.
Take “MQSNTPQPNPAPFLKAGETVVLFDGVCKLCNGWAKFIIRHDRRQRIRLATVQSPEGQALLEWAGLPLDRFDTMAAVTGDRLYVRSEAFFVALSDFPAPWRWLRVLRFFPAVIRDWLYDRIALNRYRLFGRYDSCLLPTPDHERRFLKASPLEHHHHHH”: the “soluble on expression in E. coli” value is “soluble”.
The same measure for “MGSDKIHHHHHHMASKNFVLDTNVLIENPRCIAALRNGEENRIHVPWTVLAELDGLQRDPRIGHVVGQAINALVGDEAVTFLPPLADDVAPSPGTIGDDRILGEIASSALESPILITNDRILQLKARVRGIPVEGYRDSVPFQSESQRYTGFVMDGEDPVPNCFRWENGQPVFHGPDGPRAVTWQHEVWKVAPRSVHQNLAFELMLHPGIDIVSIQSEAGYGKTFLALAAALHLVFERKDTPYRKIYLVKPVVEIGARMGFLPGDIEEKMHPYIRYVQDLLLKLHDLRPANRVFQSVEAGNMKLNPKRFEIQPIAYVRGMNLENAVVIIDEMQNLSRNEARALLTRMGEGVKCFCLGDTRQVDNQYLNESNNGLNWVVKKLKGFRNYAHIVLKGERSRGPITDIVLRSRL”: “not soluble”; for “MSSLCPYTGRPTGLFRDFEDMMPYWAQRHSMLNNFNNIVPQQLNEVENTAQKFCVKLDVAAFKPEELKVNLEGHVLTIEGHHEVKTEHGFSKRSFTRQFTLPKDVDLAHIHTVINKEGQMTIDAPKTGSNTTVRALPIHTSAGHAVTQKPSSTTTTGKH”: “not soluble”; for “MLGGKGRPSGVGGYRILVTTSRRPSPRIRSFVKDLSATIPGAFRFTRGHYSMEELAREAIIRGADRIVVVGERRGNPGIIRVYAVEGPERPDNIVSFIVKGVSLSRERRWGLPSLRGGEVLVARPLDSGVAVEFADAFVIAFHARLKPPEAAGYVEAVIESLDARTVAVTFRYGGAPVGPMLRLGKPAEMVKRGRRVAAALEHHHHHH”: “not soluble”.
